From publication PMC11514473, “The transition state for coupled folding and binding of a disordered DNA binding domain resembles the unbound state” (Nucleic Acids Research, 2024) come the findings set out here.

For orientation: Kd means the constant that tells how readily two partners part at equilibrium.

In this data set the target is T1, 285bZIP V288A (human, UniProt P16220-1 285-339, C300S;C310S;C337S;V288A).
T1 sequence: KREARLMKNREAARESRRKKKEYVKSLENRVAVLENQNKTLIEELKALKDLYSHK
Description: stopped-flow fluorescence (koff/kon); 10 mM Mg2+; 10 mM MES pH 6.5, 150 mM NaCl, 10 mM MgCl2, 0.05% Tween-20, 25 C; NMR: 10 mM Tris-d11, 150 mM NaCl, 10 mM MgCl2, 1 mM NaN3, 5% D2O (NOE at 25 C). Conditions: protein: recombinant; tags: extra N-terminal Gly; chain copies: 2; label: 5' Alexa Fluor 488; hairpin (self-annealing, 11 bp stem, CCCC loop).

B1: AlexaFluor488-CREh (structured_DNA)
DNA: CCTGACGTCAGCCCCCTGACGTCAGG
As to B1, the Kd was 0.46 ± 0.05 nM.
